Reference: the nanobody polyreactivity screen of Harvey et al. (2022)

Test: yeast display, Sf9 membrane polyspecificity reagent, FACS + sequencing; frameworks hold sequencing errors
Method in brief: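 Galactose induction of a Saccharomyces cerevisiae BJ5465 synthetic nanobody display library ran 36–48 hours. The cells were then stained for 1 hour at 4 °C with 10% biotinylated, detergent-solubilized Sf9 membrane reagent, pulled down on streptavidin microbeads and FACS-sorted into low and high (top ~1%) gates on expression and reagent-binding fluorescence. Labels for polyreactivity follow the gate of origin.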
For “QVQLVESGGGLVQAGGSLRLSCAASGIIFTRYVMGWYRQAPGKERELVATIRIGGSTTYADSVKGRFTISRDNAKNTVYLQMNSLKPEDTAVYYCAADTWYITTYGGAGSYAYGFYYWGQGTQVTVSS”, the “polyreactivity (PSR sort gate)” value was “low polyreactivity”. With “QVQLVESGGGIVQAGGSLRLTCAASGRIFLANAMGWYRQAPGKERELVAAISLSGGRTYYADSLKGRFTISRDNAKNSVYFQRNSLKPEDTAVYYCAAEFYPIRYYGGYDYWGQGTQVTVSS” the “polyreactivity (PSR sort gate)” value was “low polyreactivity”. With “QVQLVESGGGLVQAGGSLRLSCAASGSTFTYYAMGWYRQAPGKERELVAAINYSGGSTYYADSVKGRFTISRDNAKNTVYLQMNSLKPEDTAVYYCAADGYIRQYVTYYYWGQGTQVTVSS” the “polyreactivity (PSR sort gate)” value was “low polyreactivity”. For “QVQLVESGGGLVQAGGSLRLSCSASGYIFGRNSMGWYRTAHGKERELVAVISSRGSRTYYADSVKGRFTISRDNAKNTVYLQMNSLKPEDTAVYYCNAVLWWDWVYDFYYWGQGNQVTVSS”, the “polyreactivity (PSR sort gate)” value was “high polyreactivity”. In the case of “QVQLVESGGVLVQAGGSLRLSCAASGRIFRSYALGWYRQAPGKETEFVAAISSGGSTNYADSVKGRFTISRDNAKNTVYLQMNSLKREDTAVYYCAADLWAYTWYWHSDYWGQGTQVTVSS”, the “polyreactivity (PSR sort gate)” value was “low polyreactivity”. With “QVQLVESGGGLVQAGGSLRLSCAASGSIFSENAMGWYRQAPGKERELVAAITGGASTNYADSVKGRFTISRDNAKNTVYLQMNSLKPEDNAVYYCNTGGPRGTTYDYWGQGTQVTVSS” the “polyreactivity (PSR sort gate)” value was “low polyreactivity”. For “QVQLVESGGGLVQAGGSLRLSCAASGSIFKYNTMGWYRQAPGKERELVAAISSGGRTYYADSVKGRFTISRDNAKNSVYLQMNSLKPEDTAVYYCAARWSFFKTTHRNNYWGQGTQVTVSS”, the “polyreactivity (PSR sort gate)” value was “high polyreactivity”. In the case of “QVQLVESGGGLVQAGGSLRLSCAASGNTFRYNTMGWYRQAPGKERELVAVITRRGSSTYYADSVKGRFTISRDNAKNTVYLQMNSLKPEDTAVYYCAAAPYYVTLVTRRDYWGQGTQVTVSS”, the “polyreactivity (PSR sort gate)” value was “high polyreactivity”. With “QVQLVESGGGLVQAGGSLRLSCAASGFTYGANTMGWYRQAPGKERELVADISVRGDRTSYADSVKGRFTISRDNAKNTVYLPMNSLKPEDTAVYYCATDIYQHAKRRYDYWGQGTQVTVSS” the “polyreactivity (PSR sort gate)” value was “low polyreactivity”. With “QVQLVESGGGLVQAGGSLRLSCAASGSTFYSYAMGWYRQAPGKERELVAAISSSGGRTRYADSVKGRFTISRDNAKNTVYLQMNSLKPEDTAVYYCAARNRVRVGTRIGRIDEDYWGQGTQVTVSS” the “polyreactivity (PSR sort gate)” value was “high polyreactivity”. In the case of “QVQLVESGGGLVQVGGSLRLSCAASGRTFYDYAMGWYRQAPGKERELVAAITWSGGSTYYADSVKGRFTISRDNAKNTVYLQMNSLKPEDTAVSYCAKGGSYQSRYDYWGQGTQVTVSS”, the “polyreactivity (PSR sort gate)” value was “low polyreactivity”. With “QVQLVESGGGLVQAGGSLRLSGAASGRTFGVYVMGWYRQAPGKERELVAAIDDSGGSTYYADSVKGRFTISRDNAKNTVYLQMNSLKPEDTAVYYCAADFYVVYWGTYSVGYDYWGQGTQVTVSS” the “polyreactivity (PSR sort gate)” value was “low polyreactivity”. For “QVQHVESGGGLVQAGRSLRLSCAATGYIFWKNAMGWYRQAPGKERELVAGITIRGGRTYYADSVKGRFTISRDNAKNTVYLQMNSLKPEDTAVYYCAAGTGVSRYRYVYWGQGTQVTVSS”, the “polyreactivity (PSR sort gate)” value was “high polyreactivity”. With “QVQLVESGAGLVQAGGSLRLSCAASGSTFCRYVAMGWYRQAPGKERELVAAISVSDGDTYYADSVKGRFTISRDNAKNTVYLQMNSLKPEDTAVYYCAAESFYGYDYWGQGTQVTVSS” the “polyreactivity (PSR sort gate)” value was “high polyreactivity”. In the case of “QVQLVESGGGLVQAGGSLRLSCAASGRTFESNAMGWYRQAPGKERELVAGITSGGITNYADSVKGRFTISRDNAKNTVYLQMISLKPEDTAVYYCEFYYWGQGTQVTVSS”, the “polyreactivity (PSR sort gate)” value was “low polyreactivity”. For “QVQLVESGGGLVQAGGSLRLSCAASGSIFGTNTMGWYRQAPGKEREFVAVITGSTTSTYYADSVKGRFTISRDNAKNTVYLQMNSLKPEDTAVYYCPTDYWWDLFEYDYWGQGTQVTVSS”, the “polyreactivity (PSR sort gate)” value was “high polyreactivity”. With “QVQLVESGGGLVQAGGSLPLSCAASGSIYGANAQGWYRQAPGKERELVAAISSNGDDTYADSVKGRFTISRDNAKNTVYIQMNSLKPEDTAVYYCNKRPWWWGGDDYGGQGTQVTVSS” the “polyreactivity (PSR sort gate)” value was “low polyreactivity”. In the case of “QVQLEESGGGLVQAGGSLRLSCAASGSIFVYYARGWYRQAPGKERELVATISRRGGSTYYADSVKGRFTISRDNAKNTVYLQMTSLKPEDTAVDYCNAAPSPVGSARSSLTRYTGMDYWGQGTQVSVSS”, the “polyreactivity (PSR sort gate)” value was “high polyreactivity”. With “QVQLVESGGGLVQAGGSLRLSCAASGSTFGFNAMGWYRQAPGKERELVAAIRGGDSTNYADSVKGRFTISRDNAKNTVYLQMNSLKPEDTAVYYCAAVLRYVVRPYSYWSGGYDYWGQGTQVTVSS” the “polyreactivity (PSR sort gate)” value was “high polyreactivity”. For “QVQLVESGGGLVQAGGSLRLSCAASGSIFVLYAMGWYRQAPGKERELVAAISWRGGGTYYADSVKGRFTISRDNAKNTVYLLMNSLKPEDTAVYYCAAEYRLDAILYTYEFDYWGQGTQVTVSS”, the “polyreactivity (PSR sort gate)” value was “high polyreactivity”. With “QVQLVESGGGLVQAGGSLRLSCAASGRTFGNYAMGWYRQAPAKESELVAAITGRGGSTHYADSVKGRFTISRDNAKYTVYLQMNSLKPEDTAVYDCAADYRYNRGITSNKDYDYWGQGTQVTVSS” the “polyreactivity (PSR sort gate)” value was “low polyreactivity”. With “QVQLVESGGGLVQAGGSLRLSCAASGRTLVHYAMGWYRQAPGKERELVAAISIGGDSTYAVSVKGRFTISRDNAKNTVYLQMNSLKPEDTAVYYCAASGWWDFFDPYFKFDYWGQGTQVTVSS” the “polyreactivity (PSR sort gate)” value was “low polyreactivity”. For “QVQLVQSGGGLVQAGGSLRLSSAASGRIFATNAMGWYRQAPGKERELVAAITTSGGSTYYADSVKGRFTISRDNAKNTVYLHLNSLKPEDTAVYYCAARRGPNSYRWRMGYWGHGTQVTVSS”, the “polyreactivity (PSR sort gate)” value was “high polyreactivity”. In the case of “QVQLVESGGGLVQAGGSLRLSCAASGNTFPWYAMGWSRQAPGKERELVAAINSGGRTNYADSVKGRFTISRDNAKNTVYLQMNSLKQEDTAVYYCAAAFDWGLYCFDYWGQGTQVTVSS”, the “polyreactivity (PSR sort gate)” value was “high polyreactivity”. In the case of “QVQLVESGGGLVQAGGSLRLSCAASGSTFEVYAMGWYRQAPGKERELVAVINVSDGSTYYADSVKGRFTISRDNAKNTVYLQMNSLKPEDTAVYYCAAYLYNRPYQLTGYYDGYGYWGQGTQVTVSS”, the “polyreactivity (PSR sort gate)” value was “low polyreactivity”. For “QVQLVESGGGLVQAGGSLRLTCAASGSIFAKNAMGWYRQAPGKERELVAAIDLNGGSTYYADSVKGRFTISRDNAKNTDYLQMNSLKPEDTAVYYCAVYYGHSSVIRSSPEYDSWGQGTQVTVSS”, the “polyreactivity (PSR sort gate)” value was “low polyreactivity”. With “QVQLVESGGGLVQAGGSLRLSCAASGFIFGIYAMGWYRQAPGNEWEFVAAITGSAGSTYYADSVKGRFTISRDNAKNTVYLQMNSLKPEDTAVYYCATDVLPRKYDSDYPSGAYDYWGQGTQVTVSS” the “polyreactivity (PSR sort gate)” value was “low polyreactivity”. In the case of “QVHLVESCGGLVQAGGSLRLSCAASGITFWNYAMGRYRQAPGKETELVAAISYSGGSTYYADSVKGRFTISRDNAKNTFYLQMNSLKPEDTGVYYCAATLPTNWVRYDYWGQGTQVTVSS”, the “polyreactivity (PSR sort gate)” value was “low polyreactivity”. With “QVQLVESGGGLVQAGGSLRLSCAASGRTFSTNAMGWYSQAPGKERELVAAISARGGSTYYADSVKGRFTISRDNAKNTVYLLLTSLKPEDTAVDYCARRPGRYSYAFDYWGQGTQVTVSS” the “polyreactivity (PSR sort gate)” value was “high polyreactivity”. With “QFQLVESGGGLVQAGGSLRLSCAASGRILSIYAMGWYSQAPGKESEMVAGITGGGRTHSADSVKGRFTISRDNAKNTVYLQMYSLKPEDTAVYSCSSLWRYQYRSKLSYYYWGQGTQVTVSS” the “polyreactivity (PSR sort gate)” value was “high polyreactivity”. In the case of “QVQLVESGGGLVHAGGSLRLSCAASGLIFPRYAMGSYRQAPGKERELVAAISRSGGNTYYADSVKGRFTISRDNAKNTVYLQMNSLKPEDTAVYYCAAYFSTAPKSQYKLDYWGQGTQVTVSS”, the “polyreactivity (PSR sort gate)” value was “high polyreactivity”.
